From US20230069996A1

Assays:
[1] = target: IL-22 receptors on COLO205 cells (UniProt Q8N6P7)
[2] = target: IL-22 receptors on COLO205 cells (UniProt Q8N6P7); remark: listed apart in the source

Sequence of IL-22 receptors on COLO205 cells (Q8N6P7 16-574 limits assumed, chain 1 of 2): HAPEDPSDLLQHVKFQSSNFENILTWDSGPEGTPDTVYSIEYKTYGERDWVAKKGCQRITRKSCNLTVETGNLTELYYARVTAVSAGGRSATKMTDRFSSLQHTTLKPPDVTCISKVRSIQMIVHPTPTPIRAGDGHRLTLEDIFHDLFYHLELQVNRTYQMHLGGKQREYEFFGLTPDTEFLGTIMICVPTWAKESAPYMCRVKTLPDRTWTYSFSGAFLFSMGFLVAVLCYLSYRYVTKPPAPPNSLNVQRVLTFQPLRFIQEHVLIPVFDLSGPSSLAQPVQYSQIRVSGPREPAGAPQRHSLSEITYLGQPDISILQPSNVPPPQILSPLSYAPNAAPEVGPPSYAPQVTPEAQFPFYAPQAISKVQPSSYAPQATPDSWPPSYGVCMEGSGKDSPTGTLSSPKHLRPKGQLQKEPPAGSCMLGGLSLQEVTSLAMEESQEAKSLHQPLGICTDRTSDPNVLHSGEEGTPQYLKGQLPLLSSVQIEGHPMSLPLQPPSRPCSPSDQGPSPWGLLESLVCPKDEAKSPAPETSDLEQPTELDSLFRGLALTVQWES
Sequence of IL-22 receptors on COLO205 cells (Q08334 20-325 limits assumed, chain 2 of 2, further chain): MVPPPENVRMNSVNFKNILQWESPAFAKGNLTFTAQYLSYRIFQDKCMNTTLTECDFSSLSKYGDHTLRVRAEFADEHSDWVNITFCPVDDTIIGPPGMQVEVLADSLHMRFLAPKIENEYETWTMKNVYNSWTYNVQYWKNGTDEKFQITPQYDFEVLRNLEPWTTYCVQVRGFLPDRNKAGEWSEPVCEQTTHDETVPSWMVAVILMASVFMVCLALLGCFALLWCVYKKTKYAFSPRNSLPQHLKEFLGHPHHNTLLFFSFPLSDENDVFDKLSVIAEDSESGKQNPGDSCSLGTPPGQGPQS

EC50 (read off the curve) of IL-10 secretion by COLO205 cells, human IL-22 incubated with uPA [1]: 50 pM
EC50 (read off the curve) of IL-10 secretion by COLO205 cells, human IL-22 without uPA [2]: 80 pM
Substance: human IL-22 (from UniProt Q9GZX6) (ligand)
